Data: patent US20240124539A1 (NEW YORK UNIVERSITY, published 2024)
Positions of bridges follow the written chain, without caps; N, C: chain ends. Non-standard residues stand in square brackets, D forms with d. Primed or numbered codes have the meaning given here. Chains are numbered I, II in the order given. *: point of attachment. dibenzylether crosslinker″ = crosslinker alkylating both cysteine thiols, drawn in Scheme 1 and; dibenzylether crosslinker = scaffold alkylating both cysteine thiols (drawn in Scheme 1 and; dibenzylether crosslinker(3) = scaffold alkylating both cysteine thiols (Scheme 1; FITC = O=C1OC2(c3ccc(O)cc3Oc3cc(O)ccc32)c2ccc(NC(=S)*)cc21; FITC′ = fluorescein isothiocyanate, linked via thiourea; βAla = NCCC(=O)O

B1: FITC-CHD^Sos-2 (designed binder)
chain 1: Ac-WIGRLCTEILRLRNGN-NH2
chain 2: {FITC′}-A[βAla]LAWRLRELERELARLC-NH2
modifications: linker I:6-II:18 via dibenzylether crosslinker; not fully specified
notes: Crosslinked helix dimer; form used in the fluorescence polarization assay; also called CHC^Sos-2 (fluorescein-derivatized); CHD-2
B2: FITC-CHD^Sos-6 (designed binder)
chain 1: Ac-WIGRLCTEIRRLRNGN-NH2
chain 2: {FITC}-A[βAla]LAWRLRELERELARLC-NH2
modifications: linker I:6-II:18 via dibenzylether crosslinker″; not fully specified
notes: Crosslinked helix dimer; form used in the fluorescence polarization assay; also called CHC^Sos-6 (fluorescein-derivatized)
B3: FITC-CHD^Sos-4 (designed binder)
chain 1: Ac-WIGRLCTEILRLRNGN-NH2
chain 2: {FITC′}-A[βAla]LAWALRELERELARLC-NH2
modifications: linker I:6-II:18 via dibenzylether crosslinker; not fully specified
notes: Crosslinked helix dimer; form used in the fluorescence polarization assay; also called CHC^Sos-4 (fluorescein-derivatized); CHD-4
B4: CHD^Sos-3 (designed binder)
chain 1: Ac-AIGRLCTEILRLRNGA-NH2
chain 2: Ac-LAWRLRELERELARLC-NH2
modifications: linker I:6-II:16 via dibenzylether crosslinker(3)
notes: also called CHC^Sos-3; CHD-3

How the values were obtained:
[1] = target: T1, wild-type His6-tagged H-Ras (1-166) pre-loaded with GDP (UniProt P01112 1-166); test: fluorescence polarization, fluorescein-labelled CHD, His6-H-Ras-GDP titrated
T1 construct: range 1-166; also called His6-H-Ras-GDP; not shown: N-terminal His6 tag with TEV site from the pProEx HTb vector

[2] = target: T1, wild-type His6-tagged H-Ras (1-166) …; test: fluorescence polarization, fluorescein-labelled CHD (15 nM), His6-H-Ras-GDP titrated
Procedure: (§1) The generated binding affinity (KD) values for each compound are from biological triplicate studies and were determined via fitting to a sigmoidal dose-response nonlinear regression model on Graphpad Prism 6.

[3] = target: T1, wild-type His6-tagged H-Ras (1-166) …; test: direct fluorescence polarization; fluorescein-labelled CHD titrated with GDP-loaded WT H-Ras
Procedure: as §1

[4] = target: T2, fluorescently-labeled wild-type H-Ras-GDP (MST) (UniProt P01112 1-166, cysteine-reactive dye (Monolith RED-MALEIMIDE 2nd Generation or AFDye 647 maleimide) on cysteine, degree of label 0.43); test: microscale thermophoresis (column MST of the drawn table); fluorescently labelled wild-type H-Ras-GDP with serial dilutions of the unlabelled CHD
T2 construct: range 1-166; also called fluorescently-labeled Ras; wild-type H-Ras labeled with AFDye 647; not shown: N-terminal His6 tag from pProEx HTb

Row | Binder | fold enhancement in binding affinity over CHC^Sos-1 [1] | Kd [2] | Kd [3] | fold reduction in affinity against CHC^Sos-5 [1] | Kd [4]
1 | B1 | 10 fold | 2.8 µM | 2.79 µM |  | 
2 | B2 |  | 8.6 µM |  | 4 fold | 
3 | B3 |  | 40 µM | 40.4 µM |  | 
4 | B4 |  |  |  |  | > 10 µM
